Holding throughout (assay): EMSA
Common to all, as to conditions: tags: MBP fusion
In general terms: Mobility shift assays separate free from complexed probe on a gel.

Series [1] concerns the target T1, ZFP SBS#1353 (synthetic, UniProt P08047).
T1 chain: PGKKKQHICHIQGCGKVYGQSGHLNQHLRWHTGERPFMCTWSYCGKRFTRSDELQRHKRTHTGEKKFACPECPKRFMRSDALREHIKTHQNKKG
Summed up: (§1)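 Purified ZFP was titrated against labeled double-stranded target (1 nM or lower, at least 10-fold below expected Kd) carrying the natural binding site with flanks. Binding buffer was 10 mM Tris pH 7.5, 100 mM KCl, 1 mM MgCl2, 0.1 mM ZnCl2, 5 mM DTT, 10% glycerol, 0.02% BSA, with equilibration for at least 45 min. Bound and free target were separated on a 10% polyacrylamide gel.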

Series [2] addresses T2, ZFP SBS#1354 (synthetic, UniProt P08047).
T2 chain: T1 chain with Q20K, S21N, G22W, H23K, N25Q, Q26A
Summed up: as §1

Series [3] deals with T3, ZFP SBS#1363 (synthetic).
T3 chain: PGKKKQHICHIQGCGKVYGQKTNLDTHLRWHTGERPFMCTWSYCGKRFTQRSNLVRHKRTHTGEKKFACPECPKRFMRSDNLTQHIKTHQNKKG
Put shortly: as §1

The target in series [4] is T4, ZFP SBS#1361 (synthetic).
T4 chain: T3 chain with R51S, S52G, V55Q
Summed up:
as §1

Series [5] deals with ZFP SBS#1362 (synthetic). Summed up:
as §1

Series [6] deals with T5, ZFP SBS#1351 (synthetic).
T5 chain: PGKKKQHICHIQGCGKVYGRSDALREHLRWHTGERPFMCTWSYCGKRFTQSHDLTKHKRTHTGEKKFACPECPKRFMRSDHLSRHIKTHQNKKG
Summed up: as §1

For series [7], the target named is T6, ZFP SBS#1348 (synthetic).
T6 chain: T5 chain with R25T, E26A, S51A, H52A, D53T, K56T
Summed up:
as §1

The target in series [8] is ZFP SBS#1356 (synthetic). Put shortly:
as §1

Series [9] concerns the target ZFP SBS#1355 (synthetic). Summed up: as §1
For series [10], the target named is T7, ZFP SBS#1344 (synthetic).
T7 chain: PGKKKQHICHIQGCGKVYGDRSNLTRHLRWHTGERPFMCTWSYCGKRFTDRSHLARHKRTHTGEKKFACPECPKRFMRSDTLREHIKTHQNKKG
Put shortly:
as §1

Series [11] concerns the target T8, ZFP SBS#1335 (synthetic).
T8 chain: T7 chain with N23H, D50Q, R51S, H53D, A55T, R78D, D80S, T81N, R83T, E84R
Summed up:
as §1

The target in series [12] is T9, ZFP SBS#1357 (synthetic).
T9 chain: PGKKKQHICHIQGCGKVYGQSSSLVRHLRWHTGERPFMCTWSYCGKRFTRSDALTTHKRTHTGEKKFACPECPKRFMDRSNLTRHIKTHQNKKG
Put shortly:
as §1

Series [13] deals with T10, ZFP SBS#1358 (synthetic).
T10 chain: T9 chain with S51A, T55M, T56V
Summed up: as §1

The target of series [14] is T11, ZFP SBS#1366 (synthetic).
T11 chain: T3 chain with K21S, T22A, D25S, T26R, Q50T, R51S, S52G, N53H, N81A, T83A
Summed up: as §1

Series [15] addresses T12, ZFP SBS#1364 (synthetic).
T12 chain: T7 chain with D20Q, R21S, S22A, T25S, D50Q, R51S, T81A, R83A, E84Q
Summed up:
as §1

Series [16] addresses T13, ZFP SBS#1367 (synthetic).
T13 chain: T7 chain with D20Q, T25V, D50T, R51S, S52G, A55V, T81A, R83A, E84Q
Put shortly: as §1

Series [17] has as its target T14, ZFP SBS#1365 (synthetic).
T14 chain: T7 chain with D20Q, T25V, D50Q, R51S, T81A, R83A, E84Q
Summed up:
as §1

Series [18] concerns the target ZFP SBS#1337 (synthetic). Put shortly:
as §1

The target of series [19] is T15, ZFP SBS#1336 (synthetic).
T15 chain: T1 chain with N25A, Q26R, R50Q, D52S, E53D, Q55T, A81H, R83A
Put shortly: as §1

Series [20] concerns the target T16, ZFP SBS#1342 (synthetic).
T16 chain: T5 chain with A23N, Q50R, H52S, K56R, H81N, S83T, R84E
Put shortly:
as §1

The target of series [21] is T17, ZFP SBS#1343 (synthetic).
T17 chain: T3 chain with Q20R, K21S, T22D, D25T, Q50R, R51T, N53T, V55T, Q84E
Summed up:
as §1

The target in series [22] is T18, ZFP SBS#1347 (synthetic).
T18 chain: T5 chain with R25T, E26S, D53H, K56T, H81N, S83T, R84E
Summed up: as §1

Series [23] deals with ZFP SBS#1350 (synthetic). Summed up:
as §1

Series [24] has as its target T19, ZFP SBS#1334 (synthetic).
T19 chain: T5 chain with Q50R, H52S, K56R, H81D, S83R, R84E
Put shortly:
as §1

In series [25] the target is T20, ZFP SBS#1339 (synthetic).
T20 chain: T5 chain with A23E, R25T, E26R, Q50R, H52D, D53S, K56Q
Put shortly: as §1

For series [26], the target named is T21, ZFP SBS#1341 (synthetic).
T21 chain: T5 chain with A23E, R25T, E26R, Q50R, H52D, D53S, K56Q, D80H
Put shortly:
as §1

Series [27] concerns the target T22, ZFP SBS#1340 (synthetic).
T22 chain: T5 chain with A23E, R25T, E26R, Q50R, H52D, D53A, K56Q, D80H
Summed up: as §1

For series [28], the target named is T23, ZFP SBS#1338 (synthetic).
T23 chain: T5 chain with A23E, R25T, E26R, Q50R, H52D, D53A, K56Q
Put shortly:
as §1

The target of series [29] is ZFP SBS#1346 (synthetic). Summed up:
as §1

Series [30] has as its target ZFP SBS#1352 (synthetic). Put shortly:
as §1

For series [31], the target named is ZFP SBS#1330 (synthetic). Summed up:
as §1

The target in series [32] is T24, ZFP SBS#1360 (synthetic).
T24 chain: T1 chain with N25T, Q26T, S51A, E53A, Q55M, R56V, A81N, R83T
Put shortly: as §1

Numbering of substitutions follows the chain as printed.

What is called Kd is the concentration at which binding is half-saturated. Low values mean tighter binding, high ones weaker binding.

Chain of ZFP SBS#1350 (synthetic) (chain, as listed by the source): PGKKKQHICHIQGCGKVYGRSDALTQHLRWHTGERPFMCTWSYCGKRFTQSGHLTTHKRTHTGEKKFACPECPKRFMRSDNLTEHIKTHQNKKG
Chain of ZFP SBS#1355 (synthetic) (chain, as listed by the source): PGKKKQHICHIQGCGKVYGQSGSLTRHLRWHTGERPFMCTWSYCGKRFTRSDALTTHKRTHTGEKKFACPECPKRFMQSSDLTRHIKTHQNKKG
Chain of ZFP SBS#1337 (synthetic) (chain, as listed by the source): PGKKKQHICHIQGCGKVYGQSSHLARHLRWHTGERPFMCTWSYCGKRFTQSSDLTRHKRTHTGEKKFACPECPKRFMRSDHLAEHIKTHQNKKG
Chain of ZFP SBS#1330 (synthetic) (chain, as listed by the source): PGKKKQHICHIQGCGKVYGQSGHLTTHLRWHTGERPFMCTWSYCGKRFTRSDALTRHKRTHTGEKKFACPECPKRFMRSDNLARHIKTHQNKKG
Chain of ZFP SBS#1356 (synthetic) (chain, as listed by the source): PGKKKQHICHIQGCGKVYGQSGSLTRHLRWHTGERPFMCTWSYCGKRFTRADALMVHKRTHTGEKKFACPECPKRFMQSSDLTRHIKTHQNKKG
Chain of ZFP SBS#1352 (synthetic) (chain, as listed by the source): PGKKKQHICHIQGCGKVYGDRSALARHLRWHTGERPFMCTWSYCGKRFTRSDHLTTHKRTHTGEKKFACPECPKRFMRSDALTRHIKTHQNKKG

B1: CTGGCGAGA (dsDNA)
DNA 1: CTGGCGAGA
DNA 2: TCTCGCCAG
As for B1, the Kd in [1] turned out to be 56.5 nM; in series [2] it was 20.9 nM.

B2: AAGGAAAAA (dsDNA)
DNA 1: AAGGAAAAA
DNA 2: TTTTTCCTT
In the case of B2, the Kd came to 74.1 nM in series [3], 0.835 nM in [4] and 0.332 nM in series [5].

B3: GGGTCACTG (dsDNA)
DNA 1: GGGTCACTG
DNA 2: CAGTGACCC
As for B3, the Kd in series [6] was found to be 0.234 nM; in [7], 2.58 nM.

B4: GCTTTGGCA (dsDNA)
DNA 1: GCTTTGGCA
DNA 2: TGCCAAAGC
In the case of B4, the Kd was determined as 0.034 nM in series [8] and 0.172 nM in series [9].

B5: CCGGGCGAC (dsDNA)
DNA 1: CCGGGCGAC
DNA 2: GTCGCCCGG
In [10], B5 gave a Kd of 2.28 nM.

B6: GACGCTGGC (dsDNA)
DNA 1: GACGCTGGC
DNA 2: GCCAGCGTC
Consider B6, for which, in [11], the affinity, expressed as Kd, was 1.4 nM.

B7: GACTTGGTA (dsDNA)
DNA 1: GACTTGGTA
DNA 2: TACCAAGTC
As to B7, the Kd was 0.032 nM in [12] and 0.05 nM in series [13].

B8: ATGGGTGAA (dsDNA)
DNA 1: ATGGGTGAA
DNA 2: TTCACCCAT
With B8, the Kd in [14] worked out at 22.6 nM; in series [15] it was 1.22 nM; in series [16], 1.03 nM; in series [17], 0.152 nM.

B9: CGGGCTGGA (dsDNA)
DNA 1: CGGGCTGGA
DNA 2: TCCAGCCCG
With B9, the Kd came out at 0.235 nM in series [18] and 1.4 nM in series [19].

B10: CAGGCGCAG (dsDNA)
DNA 1: CAGGCGCAG
DNA 2: CTGCGCCTG
In the case of B10, the Kd is 0.68 nM in series [20] and 37 nM in series [21].

B11: CAGTGAATG (dsDNA)
DNA 1: CAGTGAATG
DNA 2: CATTCACTG
In the case of B11, the values for the dissociation constant Kd in series [22] and in [23] were 8.23 nM and 74.1 nM, respectively.

B12: CCGGCGCTG (dsDNA)
DNA 1: CCGGCGCTG
DNA 2: CAGCGCCGG
B12 showed a Kd in [24] of 0.31 nM.

B13: GGGATGGCG (dsDNA)
DNA 1: GGGATGGCG
DNA 2: CGCCATCCC
For the molecule B13, the Kd was found to be 0.569 nM in series [25], 4.1 nM in series [26], 0.751 nM in series [27] and 1.04 nM in [28].

B14: GATGTGTGA (dsDNA)
DNA 1: GATGTGTGA
DNA 2: TCACACATC
In series [29], B14 showed a Kd of 0.153 nM.

B15: GTGTGGGTC (dsDNA)
DNA 1: GTGTGGGTC
DNA 2: GACCCACAC
In series [30], B15 returned a dissociation constant (Kd) of 0.023 nM.

B16: GAGGTGTGA (dsDNA)
DNA 1: GAGGTGTGA
DNA 2: TCACACCTC
For the molecule B16, the dissociation constant Kd in [31] was 0.175 nM.

B17: CAGTTGTGA (dsDNA)
DNA 1: CAGTTGTGA
DNA 2: TCACAACTG
In turn, B17 returned a Kd in series [32] of 41.7 nM.
